# Assay results as given in the supplement of paper PMC7125110.
# ± gives the standard error. Fewer inactive variants are shown than the library holds.
# B1: glmS ribozyme (parent)
# chain: AUAAAAGCGCCAGAACUACAGAAAUGUAGUUGACGAGGAGGAGGUUUAUCGAAUUUUCGGCGGAUGCCUCCAAA
# Tests used:
# Conditions in all cases: with glucosamine-6-phosphate
# glucosamine-6-phosphate [1] = variants of: B1; assay: self-cleavage kobs at 40 uM GlcN6P; higher = faster cleavage; RNA array
# Method in brief: (§1)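 Ribozyme variants carrying barcodes were transcribed in situ on sequenced MiSeq chips by E. coli RNA polymerase and tracked at 37 °C with a hybridised Cy3 probe. They were exposed to 40 μM to 10 mM glucosamine-6-phosphate in HEPES/KCl/Mg(OAc)2 buffer. kobs came from exponential decay fits of normalised per-tile medians, and kcat and KM from weighted Michaelis–Menten fits.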
# glucosamine-6-phosphate [2] = variants of: B1; assay: self-cleavage kobs at 10000 uM GlcN6P; higher = faster cleavage; RNA array
# Method in brief: as §1
# glucosamine-6-phosphate [3] = variants of: B1; assay: self-cleavage kobs at 160 uM GlcN6P; higher = faster cleavage; RNA array
# Method in brief: as §1
# glucosamine-6-phosphate [4] = variants of: B1; assay: self-cleavage kobs at 640 uM GlcN6P; higher = faster cleavage; RNA array
# Method in brief: as §1
# glucosamine-6-phosphate [5] = variants of: B1; assay: self-cleavage kobs at 2500 uM GlcN6P; higher = faster cleavage; RNA array
# Method in brief: as §1
Variant,self-cleavage kobs at 40 uM GlcN6P (glucosamine-6-phosphate [1]),self-cleavage kobs at 10000 uM GlcN6P (glucosamine-6-phosphate [2]),self-cleavage kobs at 160 uM GlcN6P (glucosamine-6-phosphate [3]),self-cleavage kobs at 640 uM GlcN6P (glucosamine-6-phosphate [4]),self-cleavage kobs at 2500 uM GlcN6P (glucosamine-6-phosphate [5])
C11U G13A A14C A52C G66A,< 1e-05 s⁻¹,< 1e-05 s⁻¹,–,–,–
A12U A33U U47G U49G U55G C68U,< 1e-05 s⁻¹,–,–,–,–
G13A U31A A48C C50U G60U C67A,< 1e-05 s⁻¹,< 1e-05 s⁻¹,–,–,–
A12U G29U G35C U49A C70A C71G,< 1e-05 s⁻¹,–,< 1e-05 s⁻¹,–,–
G13A C50G U55G U57G G62U,8.98e-05 ± 2.1e-05 s⁻¹,5.32e-05 ± 1.5e-05 s⁻¹,–,–,–
G13C A15C G51U,< 1e-05 s⁻¹,–,–,–,–
C11U G32C U55G A64C,< 1e-05 s⁻¹,< 1e-05 s⁻¹,–,< 1e-05 s⁻¹,–
A12C A14C C70U,< 1e-05 s⁻¹,8.48e-05 ± 1.8e-05 s⁻¹,–,–,9.06e-05 ± 1.4e-05 s⁻¹
A14C G32A A42U U54G,< 1e-05 s⁻¹,–,–,–,–
G13U G51U,< 1e-05 s⁻¹,< 1e-05 s⁻¹,< 1e-05 s⁻¹,–,< 1e-05 s⁻¹
A12U G41C C58A,< 1e-05 s⁻¹,< 1e-05 s⁻¹,–,–,< 1e-05 s⁻¹
A12U G41U U54A,4.72e-05 ± 1.9e-05 s⁻¹,0.000602 ± 0.00016 s⁻¹,–,–,–
C11U A36G C58U C67G,4.33e-05 ± 2.1e-05 s⁻¹,–,–,–,–
A12U G40U G41C,< 1e-05 s⁻¹,–,–,–,–
A14C G40U U46C C68U,< 1e-05 s⁻¹,–,–,–,–
G13U G29U A36U U57G,< 1e-05 s⁻¹,< 1e-05 s⁻¹,–,–,–
A12C U45A C58G C67G,< 1e-05 s⁻¹,–,–,–,–
C11G U30C,< 1e-05 s⁻¹,–,–,< 1e-05 s⁻¹,–
G13C G43A G63A A64G,< 1e-05 s⁻¹,< 1e-05 s⁻¹,–,–,–
A12G G13A C61G,< 1e-05 s⁻¹,< 1e-05 s⁻¹,–,–,–

Variant,self-cleavage kobs at 40 uM GlcN6P (glucosamine-6-phosphate [1]),self-cleavage kobs at 10000 uM GlcN6P (glucosamine-6-phosphate [2]),self-cleavage kobs at 160 uM GlcN6P (glucosamine-6-phosphate [3]),self-cleavage kobs at 640 uM GlcN6P (glucosamine-6-phosphate [4]),self-cleavage kobs at 2500 uM GlcN6P (glucosamine-6-phosphate [5])
A12C G43U C71A,< 1e-05 s⁻¹,–,–,–,–
A12U U30A C70U,0.000748 ± 0.00013 s⁻¹,0.0461 ± 0.017 s⁻¹,–,–,–
A14C A15G C70U,6.72e-05 ± 1.7e-05 s⁻¹,–,0.000124 ± 2.7e-05 s⁻¹,0.000547 ± 0.00017 s⁻¹,0.00207 ± 0.00058 s⁻¹
G13A A14U U31C,7.34e-05 ± 1.8e-05 s⁻¹,–,–,–,–
A12C U46C C50G G63U C67G C68U,0.000202 ± 7.2e-05 s⁻¹,0.000454 ± 0.00012 s⁻¹,–,–,–
A12U U45C,0.000226 ± 3.6e-05 s⁻¹,0.00628 ± 0.001 s⁻¹,–,–,0.00428 ± 0.0016 s⁻¹
C11U A14C A36G C50A,< 1e-05 s⁻¹,< 1e-05 s⁻¹,–,–,–
C11U G32C C58U C70G,4.92e-05 ± 2.1e-05 s⁻¹,–,–,–,–
A12U A36G,< 1e-05 s⁻¹,–,< 1e-05 s⁻¹,–,–
A12U G44U U57A G59A,< 1e-05 s⁻¹,< 1e-05 s⁻¹,–,–,–
A12U A14G A64U G66U,< 1e-05 s⁻¹,–,–,–,–
A12U G32U C50G,7.78e-05 ± 3.4e-05 s⁻¹,–,–,–,–
A12G G41U A52G U54A,< 1e-05 s⁻¹,–,–,–,–
A12U G38C A52G C58A,< 1e-05 s⁻¹,–,–,–,–
A12U A36G U54A,< 1e-05 s⁻¹,–,–,–,–
G13C G62A,< 1e-05 s⁻¹,–,–,–,< 1e-05 s⁻¹
A12G C61A C70U,< 1e-05 s⁻¹,< 1e-05 s⁻¹,–,–,–
A12G G63A A64U,< 1e-05 s⁻¹,–,< 1e-05 s⁻¹,–,< 1e-05 s⁻¹
G13A G63U,< 1e-05 s⁻¹,< 1e-05 s⁻¹,< 1e-05 s⁻¹,< 1e-05 s⁻¹,< 1e-05 s⁻¹
A12C U56G C68A C70A,< 1e-05 s⁻¹,–,–,–,–

Variant,self-cleavage kobs at 40 uM GlcN6P (glucosamine-6-phosphate [1]),self-cleavage kobs at 10000 uM GlcN6P (glucosamine-6-phosphate [2]),self-cleavage kobs at 160 uM GlcN6P (glucosamine-6-phosphate [3]),self-cleavage kobs at 640 uM GlcN6P (glucosamine-6-phosphate [4]),self-cleavage kobs at 2500 uM GlcN6P (glucosamine-6-phosphate [5])
A12U C34U G41U G66C,< 1e-05 s⁻¹,< 1e-05 s⁻¹,–,–,< 1e-05 s⁻¹
A12C A36G A64C,< 1e-05 s⁻¹,< 1e-05 s⁻¹,–,< 1e-05 s⁻¹,–
A12U G29A G41A C50A C67A,< 1e-05 s⁻¹,–,–,–,–
G13C G60A U65G G66C C71U,< 1e-05 s⁻¹,< 1e-05 s⁻¹,–,–,–
A12C G35U,< 1e-05 s⁻¹,< 1e-05 s⁻¹,< 1e-05 s⁻¹,< 1e-05 s⁻¹,< 1e-05 s⁻¹
G13U A15U G43C U57C C58G,< 1e-05 s⁻¹,–,–,–,–
C11U G13U U57C G62C C67A,< 1e-05 s⁻¹,–,–,–,–
C11U A15G C50G,5.89e-05 ± 2.4e-05 s⁻¹,–,–,–,–
G13A A33G,< 1e-05 s⁻¹,–,–,< 1e-05 s⁻¹,–
G13C A36G A39U,< 1e-05 s⁻¹,–,–,< 1e-05 s⁻¹,< 1e-05 s⁻¹
A12U A15G A39G,0.00105 ± 0.00021 s⁻¹,0.0688 ± 0.023 s⁻¹,–,–,–
C11U C50G U65A C68A,8.61e-05 ± 2.8e-05 s⁻¹,–,–,–,–
A12U A39U U54C,0.000713 ± 0.00016 s⁻¹,0.0366 ± 0.01 s⁻¹,–,–,–
A14C A36G,< 1e-05 s⁻¹,< 1e-05 s⁻¹,< 1e-05 s⁻¹,< 1e-05 s⁻¹,< 1e-05 s⁻¹
A14C A53C G62C C68G,< 1e-05 s⁻¹,< 1e-05 s⁻¹,–,–,–
G13A U46C G59A,< 1e-05 s⁻¹,–,–,–,–
A12C A42U A64G,< 1e-05 s⁻¹,–,–,< 1e-05 s⁻¹,–
A12U A14G G29A,0.00101 ± 0.00019 s⁻¹,0.00831 ± 0.0018 s⁻¹,–,–,–
A14C A36C G63A U65C,< 1e-05 s⁻¹,< 1e-05 s⁻¹,< 1e-05 s⁻¹,–,–
C11U G41C U45A C71G,< 1e-05 s⁻¹,–,< 1e-05 s⁻¹,–,< 1e-05 s⁻¹
